Results reported in paper PMC1904107.

Molecular target: caldesmon(302–564) (UniProt Q05682)
Experiment: fluorescence cross-correlation spectroscopy

Kd: 500 nM
Substance: CaM(1–149) (from UniProt P0DP23 1-149) (natural protein)
